Ends that are not written are not given here.
Legend:
[1] = biological target: T1, RAMP3 (Homo sapiens, UniProt O60896); test: RAMP3 coreceptor binding, fluorescence anisotropy of RAMP-FITC; settings: duplicate assays, FIG. 6
T1 sequence (O60896 24-148): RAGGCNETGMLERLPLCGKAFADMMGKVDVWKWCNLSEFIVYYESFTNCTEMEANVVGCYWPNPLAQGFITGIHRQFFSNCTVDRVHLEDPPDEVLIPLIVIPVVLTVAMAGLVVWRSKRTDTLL
Procedure: (§1) Purified monoPEGylated human amylin was assayed for RAMP2 and RAMPS coreceptor binding interaction.
(§2) RAMP (receptor activity modifying protein) was labeled with fluorescein isothiocianate for 1 h at 4° C. in PBS ([…]) pH 7.4, and purified by size exclusion chromatography (SEC) in Sepharose G25 (agarose-based chromatography media, provided by the US company GE Healthcare) using the same buffer. Labelling was confirmed by UV absorbance measurements at A280 and A490, allowing estimation of coupling efficiency, relying on about 0.5 fluorescein/RAMP molecule.

[2] = biological target: RAMP2 (Homo sapiens, UniProt O60895); test: RAMP2 coreceptor binding, fluorescence anisotropy of RAMP-FITC; settings: duplicate assays, FIG. 5
Chain of RAMP2 (O60895 43-175, species assumed): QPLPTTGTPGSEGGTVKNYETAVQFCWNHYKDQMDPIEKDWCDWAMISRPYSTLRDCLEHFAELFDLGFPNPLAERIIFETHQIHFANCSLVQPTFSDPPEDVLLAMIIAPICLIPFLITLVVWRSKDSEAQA
Procedure: as §1, §2

[3] = Short-term stability with insulin analogues, ThT binding assay; type: physicochemical; settings: 10 μM of each compound, 10 mM NaH2PO4 pH 7.4, 24h at 25° C.; FIG. 13A-D
Procedure: The aggregation ratio of human amylin or its PEGylated derivative upon combination with insulin R, insulin detemir, or insulin glargine was tested by ThT binding assay. Combinations (10 μM of each compound) were incubated with 10 mM NaH2PO4 pH 7.4 and in presence of 10 μM ThT, for 24h at 25° C. Fluorescence variations indicating amyloid fibers formation were monitored by exciting at 450 nm and measuring emission at 482 nm.

[4] = Amyloid aggregation of human amylin by thioflavin T (ThT) binding; type: physicochemical; settings: pH 7.4, FIG. 7
Procedure: Purified monoPEGylated human amylin of example 1 was re-suspended in DMSO and diluted to PBS pH 7.4 and allowed to incubate at 37° C. Samples were evaluated for amyloid aggregates by using the amyloid chromogenic probe thioflavin T (ThT). The employment of ThT binding protocols to measure amyloid fibril formation has already been determined in the art (see, e.g., Levine, 1999). The kinetics of amylin (50 μM of free or hAmy-PEG5k) aggregation was performed by incubating the protein in 10 mM NaH2PO4 pH 7.4 at 25° C. Aggregation was followed by the binding of Thioflavin T (ThT) to amyloid fibrils, by adding 160 μL sample with 40 μL ThT 100 μM and monitoring fluorescence by exciting at 450 nm and measuring emission at 482 nm for 24 h

[5] = Isoelectric focusing (pI determination); type: physicochemical; settings: IEF, pH 3-10 linear immobilized pH gradient strips; FIG. 9
Procedure: Sixty micrograms of acetylated human amylin (AcO-hAmy) or hAmyPEG5k were dissolved into 8 M urea, 2% CHAPS and 0.002% bromophenol blue buffer to a final volume of 125 μL. The samples were incubated into a 7 cm pH 3-10 linear immobilized pH gradient strips overnight prior to isoelectric focalization (IEF). The IEF was carried out in MultiPhor II (Pharmacia Biotech) device at 20° C. according to the following conditions, 200 V (1 min), ramping to 3500 V (90 min) and 3500 V (60 min). At the end, the strips were fixed with 0.20% glutaraldehyde (in 30% ethanol, 0.2 M sodium acetate) for 60 min at room temperature, and then stained for peptide identification by Coomassie brilliant blue R-250 (at 0.025% in 40% methanol, 7% acetic acid) for 30 min. The excess of Coomassie was removed by incubation with 0.1% acetic acid until no background visualization. The IEF can be easily calculated from the relationship between displacements in the strips and pH. As depicted in FIG. 9, the acetylation of Lys1 present in AcO-hAmy (FIG. 9A) and the PEGylation in the same site, present in hAmy-PEG5k (FIG. 9B), results in similar effects on the pI of human amylin, […] it to approximately 9.2.

[6] = Long-term effect of pH on aggregation of hAmyPEG5k; type: physicochemical; settings: 7 days at 25° C. then 9 days at 37° C. (16 days total); FIG. 12
Procedure: In another experimental setting, the influence of pH over the stability of the hAmyPEG5k was also tested for a longer period of time (up to 16 days) and at higher energy environments (37° C.). […] (i.e., 16 days total).

[7] = Pharmacokinetics in rats, plasma ELISA for human amylin; type: in vivo, Harlan Sprague Dawley male rats; settings: 100 μg peptide in 500 uL saline, FIG. 8A-C
Procedure: The pharmacokinetics of the hAmy-PEG5k and hAmy-PEG20k were characterized in vivo in Harlan Sprague Dawley male rats. The animals were housed in a temperature-controlled room with a light-dark cycle of 12 h. Water and food were available ad libitum. Three groups were formed, control (free human amylin, not PEGylated), hAmy-PEG5k and hAmy-PEG20k. Animals received 500 uL of saline containing 100 μg of human amylin peptides, either free human amylin or purified monoPEGylated human amylin derivatives. Blood was collected retro-orbitally from rats (n=3 rats for each time interval), and the plasma was subjected to ELISA assay for human amylin as provided by the manufacturer (Millipore, Cat Number EZHA-52K.

[8] = Short-term pH-dependent aggregation, ThT fluorescence; type: physicochemical; settings: pH 3.0 to 10.0, 24h at 25° C.; FIGS. 10, 11
Procedure: In a first setting, free human amylin, […] incubated in aqueous buffered solutions with different pH (from 3.0 to 10.0) in the presence of ThT. Fluorescence emissions derived from ThT binding to amyloid fibers were monitored for 24h at 25° C. […] These findings support the hypothesis that acylated derivatives of human amylin have increased stability in aqueous solutions, especially, in physiologic pH ranges.

Substance: HEWL: unrelated protein hen egg white lisozyme, control for non-specific binding
- apparent binding affinity for the coreceptor RAMP3 [1]: nonspecific binding
- apparent binding affinity for the coreceptor RAMP2 [2]: nonspecific binding

Substance: detemir
- aggregation (ThT binding) [3]: negligible aggregation

Substance: glargine
- aggregation (ThT binding) [3]: negligible aggregation

Substance: KCNTATCATQRLANFLVHSSNNFGAILSSTNVGSNTY [human amylin]
- aggregation (ThT binding to amyloid fibrils) ([4]; 50 μM): aggregates very fast
- aggregation (ThT binding to amyloid fibrils) ([4]; in 3 days): almost all free human amylin was aggregated in amyloid form
- aggregation (ThT binding) [3]: aggregates

Substance: hAmy-PEG5k: monopegylated amylin obtained by the reaction of human amylin and mPEG 5000 Da (KCNTATCATQRLANFLVHSSNNFGAILSSTNVGSNTY; not fully specified (C-terminus, bridges); cysteine pairing not given here; also: mono-PEGylated with mPEG 5000 Da, site not given here)
- aggregation (ThT binding to amyloid fibrils) ([4]; at day 7): no signs of aggregation
- pI [5]: approximately 9.2
- aggregation at different pH, long term [6]: remains non-aggregated
- plasma decay / duration of stability in plasma [7]: longer duration of stability in plasma
- aggregation (ThT binding) [3]: does not
- aggregation kinetics / aqueous stability (ThT) [8]: improved aqueous stability and lower or absent formation of amyloid fibers

Substance: insulin R: recombinant insulin
- aggregation (ThT binding) [3]: negligible aggregation

From patent US20160184401A1, “NON-AGGLOMERATING BIOCONJUGATES OF AMYLIN AND AMYLIN-MIMETIC COMPOUNDS, COMPOSITIONS COMPRISING THE SAME, AND MAKING AND USE THEREOF” (UNIVERSIDADE FEDERAL DO RIO DE JANEIRO, priority 2013, published 2016)
